Experimental data taken from paper PMC6585436 (Chemistry & biology, 2015).

Target: MtMscL CΔ48 C-GFP (pet15b-MtMscL CΔ(103–151)-S-TEV-GFP-6xHis) (Mycobacterium tuberculosis) (UniProt A5U127)
Experiment: native MS

MtMscL CΔ48 C-GFP (pet15b-MtMscL CΔ(103–151)-S-TEV-GFP-6xHis) (from UniProt A5U127 1-102) (domain or fragment)
stoichiometry N: 5
